Results from patent publication US20240059794A1 (PARASOL BIOTECH, published 2024).
Numbering of substitutions follows the chain as printed.

B1: C12 (VHH)
VHH: QVQLVESGGGLVQPGGSLRLSCAASSNIFRAYGMDWYRQAPGKQREMVATIWLSGRSTYTDAVKGRFTISRDNAKNTVYLQMNNLKPEDTAVYYCNAGPTTASSVRQYWGQGTQVTVSS
notes: Alpaca VHH tested as culture supernatant of IPTG-induced HB2151 bacteria (pComb3XSS phagemid); also called clone C12
B2: C08 (VHH)
VHH: EVQLVESGGGLVQPGGSLRLSCAASSNIFRAYGMGWYRQAPGKQREMVAAIWLSGRTEYADAVQGRFTVSRDNAKNTVYLQMNSLKPEDTAVYYCNAGPPTATSVRQYWGQGTQVTVSS
notes: Alpaca VHH tested as culture supernatant of IPTG-induced HB2151 bacteria (pComb3XSS phagemid); also called C8; clone C08
B3: C13 (VHH)
VHH: B1 VHH with S57T, N84S, P99A, T100P, V105G
notes: Alpaca VHH tested as culture supernatant of IPTG-induced HB2151 bacteria (pComb3XSS phagemid); also called clone C13
B4: C15 (VHH)
VHH: B1 VHH with L11V, K64Q
notes: Alpaca VHH tested as culture supernatant of IPTG-induced HB2151 bacteria (pComb3XSS phagemid); also called clone C15
B5: C21 (VHH)
VHH: QVQLVESGGGLVQPGGSLRLSCTSSSNIFRIYGMDWYRQAPGKQREIVATIYLSGRTTYSDAVKGRFTISRDNAKDTVYLQMNSLKPEDTAVYYCNAGEPTASSVRQYWGQGTQVTVSS
notes: Alpaca VHH tested as culture supernatant of IPTG-induced HB2151 bacteria (pComb3XSS phagemid); also called clone C21
B6: C27 (VHH)
VHH: B5 VHH with Q1E, R30K, D76N, S84T, P100T
notes: Alpaca VHH tested as culture supernatant of IPTG-induced HB2151 bacteria (pComb3XSS phagemid); also called clone C27
B7: C30 (VHH)
VHH: QVQLVESGGGLVQPGGSLRLSCAASGSIFRVYGMDWYRQAPGKQRELVASIFLSGRTNYADAVKGRFTLSRDNAKNTMYLQMNSLKPEDTAVYYCNAGETTASSVRQYWGQGTQVTVSS
notes: Alpaca VHH tested as culture supernatant of IPTG-induced HB2151 bacteria (pComb3XSS phagemid); also called clone C30
B8: C31 (VHH)
VHH: B7 VHH with Q1A, F52W, V117I
notes: Alpaca VHH tested as culture supernatant of IPTG-induced HB2151 bacteria (pComb3XSS phagemid); also called clone C31

Molecular target: T1, GUCY2C protein (Ser24-Gln430) (Homo sapiens (Human), UniProt P25092 24-430)
T1 construct: Synthesized by GenScript and used as the immunogen; No tags are stated; also called extracellular region of the artificially synthesized GUCY2C protein; Protein GUCY2C
T1 sequence (P25092 24-430): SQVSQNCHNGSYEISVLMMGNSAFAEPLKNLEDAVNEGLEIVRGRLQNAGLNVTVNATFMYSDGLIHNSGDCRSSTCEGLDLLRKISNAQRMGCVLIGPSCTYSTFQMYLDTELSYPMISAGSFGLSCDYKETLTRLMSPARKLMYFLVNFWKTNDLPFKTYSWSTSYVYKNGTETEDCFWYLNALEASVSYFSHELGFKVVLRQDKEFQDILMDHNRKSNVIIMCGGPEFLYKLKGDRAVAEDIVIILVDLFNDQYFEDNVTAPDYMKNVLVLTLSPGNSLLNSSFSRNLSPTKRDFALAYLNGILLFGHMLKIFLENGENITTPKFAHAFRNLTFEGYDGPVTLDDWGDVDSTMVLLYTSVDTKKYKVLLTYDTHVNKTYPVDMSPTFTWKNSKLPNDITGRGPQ
Assay: Screening ELISA: culture supernatant of the IPTG-induced HB2151 clone on a plate coated with 1 ug/ml GUCY2C; detection with peroxidase goat anti-alpaca IgG (VHH domain), TMB, absorbance at 450 nm; VHH concentration not given; negative control (NC) bar in the same chart is labelled 0.15
Experimental: The phages of 3 rounds screening were transfected into HB2151 bacteria, and 100 ul of infected HB2151 bacteria were taken to scrape on the surface of 2×YT-AG solid culture dish. 96 single clones were picked and added into 2×YT medium, then cultured in a 96 deep-well plate. 0.8 mM IPTG was added into the medium when the bacteria grew to logarithmic phase and were cultured overnight at 25° C. The supernatant of medium was added to the 1 ug/ml GUCY2C coated ELISA plate which was contained in two control wells. After incubating for 2 hours at 37° C., the plate was washed 3 times with PBST. Peroxidase AffiniPure Goat anti-Alpaca IgG, VHH domain (Jackson Immumo Research) was added into the Elisa plate, incubated at 37° C. for 1 hour and washed 3 times with PBST. TMB solution was added for 20 minutes, then the reaction was stopped with 2M sulfuric acid. The absorbance value at 450 nm wavelength was read on the microplate reader (FIG. 2). Clones with an absorbance value 2.1 times higher than the negative control were considered positive clones and were sent to sequencing.

Row | Binder | OD450
1 | B1 | 2
2 | B2 | 0.86
3 | B3 | 0.8
4 | B4 | 1
5 | B5 | 0.42
6 | B6 | 1.47
7 | B7 | 0.93
8 | B8 | 0.45
